Results: article PMC6932757, “Inhibition of FLT1 ameliorates muscular dystrophy phenotype by increased vasculature in a mouse model of Duchenne muscular dystrophy” (PLoS Genetics, 2019)

Biological target: T1, mouse FLT1-FC chimeric protein with His-tag (mouse, UniProt P35969 23-759)
T1 construct: FLT1 (VEGF receptor-1, VEGFR1), mouse, soluble form fused to FC; also called chimeric FLT1-FC; mouse soluble FLT1-FC chimeric protein; source: bought: R&D Systems (471-F1-100)
T1 sequence (looked up): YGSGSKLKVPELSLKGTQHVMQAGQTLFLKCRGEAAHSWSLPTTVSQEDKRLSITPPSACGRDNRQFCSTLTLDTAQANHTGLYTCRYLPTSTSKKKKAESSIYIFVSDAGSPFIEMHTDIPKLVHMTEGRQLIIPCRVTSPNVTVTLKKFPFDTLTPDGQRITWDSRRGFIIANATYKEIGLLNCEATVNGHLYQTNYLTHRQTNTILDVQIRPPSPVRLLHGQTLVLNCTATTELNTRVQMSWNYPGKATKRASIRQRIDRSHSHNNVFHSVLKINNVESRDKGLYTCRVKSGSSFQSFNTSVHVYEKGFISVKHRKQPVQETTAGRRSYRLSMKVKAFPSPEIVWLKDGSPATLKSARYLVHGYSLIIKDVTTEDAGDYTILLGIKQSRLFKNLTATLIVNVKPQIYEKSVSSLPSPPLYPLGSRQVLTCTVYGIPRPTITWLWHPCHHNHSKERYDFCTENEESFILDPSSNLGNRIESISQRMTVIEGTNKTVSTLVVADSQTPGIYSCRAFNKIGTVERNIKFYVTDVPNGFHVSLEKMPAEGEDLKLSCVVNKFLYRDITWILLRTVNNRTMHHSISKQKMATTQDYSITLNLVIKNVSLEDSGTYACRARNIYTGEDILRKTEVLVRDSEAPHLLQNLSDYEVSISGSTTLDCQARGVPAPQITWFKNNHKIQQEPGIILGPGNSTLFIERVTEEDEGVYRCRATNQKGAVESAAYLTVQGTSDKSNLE
Assay: ELISA; mouse FLT1-FC (His-tag) coated on 96 well plates, blocked with 5% BSA; anti-FLT1 antibodies incubated, then mouse PlGF2; detected with biotin-conjugated anti-PlGF2 antibody and Streptavidin-HRP, TMB, 450 nm
Conditions: both partners purified

B1: recombinant mouse PlGF2 (ligand, UniProt P49764 19-158, looked up)
chain: VHSQGALSAGNNSTEVEVVPFNEVWGRSYCRPMEKLVYILDEYPDEVSHIFSPSCVLLSRCSGCCGDEGLHCVPIKTANITMQILKIPPNRDPHFYVEMTFSQDVLCECRPILETTKAERRKTKGKRKRSRNSQTEEPHP
notes: Placenta growth factor 2 (PlGF2), mouse, recombinant; probably the mature secreted protein (surmised); source: bought: R&D Systems (465-PL-010/CF)
  binding result: binds
